Legend:
Experiment in all cases: holdup assay
Design in all cases: key: below the threshold = too weak to quantify, mostly under pKd 3.1 to 4
Details in all cases: plain residues with an end cap or a label only (N-terminal biotin on a linker: ttds)
GRIP1_7, Q9Y3R0 = biological target: T1, GRIP1_7, Q9Y3R0
T1 sequence (Q9Y3R0 999-1096, limits assumed, looked up): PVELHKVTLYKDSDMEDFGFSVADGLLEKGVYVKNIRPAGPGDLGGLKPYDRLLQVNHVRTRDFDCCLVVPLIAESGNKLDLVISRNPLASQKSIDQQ

DLG3_1, Q92796 = biological target: T2, DLG3_1, Q92796
T2 sequence (Q92796 125-227, limits assumed, looked up): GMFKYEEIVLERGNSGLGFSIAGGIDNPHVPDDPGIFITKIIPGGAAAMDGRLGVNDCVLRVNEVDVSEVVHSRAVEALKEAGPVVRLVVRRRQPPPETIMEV

DLG4_1, P78352 = biological target: DLG4_1, P78352
DLG4_1, P78352, sequence (P78352 62-152): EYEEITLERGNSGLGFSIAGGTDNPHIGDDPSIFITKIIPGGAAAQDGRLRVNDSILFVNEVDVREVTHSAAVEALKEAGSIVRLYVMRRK

LIN7A, O14910 = biological target: T3, LIN7A, O14910
T3 sequence (O14910 103-200, limits assumed, looked up): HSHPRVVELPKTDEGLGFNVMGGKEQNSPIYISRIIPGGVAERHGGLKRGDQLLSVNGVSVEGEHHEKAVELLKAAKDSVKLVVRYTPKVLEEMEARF

PDLIM1, O00151 = biological target: PDLIM1, O00151
PDLIM1, O00151, sequence (O00151 1-87): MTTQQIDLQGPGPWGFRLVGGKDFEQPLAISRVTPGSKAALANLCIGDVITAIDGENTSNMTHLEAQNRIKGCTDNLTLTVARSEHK

Inadl_3, Q8NI35 = biological target: Inadl_3, Q8NI35
Inadl_3, Q8NI35, sequence (Q8NI35 359-469): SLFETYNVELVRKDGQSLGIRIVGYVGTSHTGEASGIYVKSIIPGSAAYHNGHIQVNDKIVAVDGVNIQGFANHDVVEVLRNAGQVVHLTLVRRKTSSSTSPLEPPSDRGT

PARD3B_1, Q8TEW8 = biological target: T4, PARD3B_1, Q8TEW8
T4 sequence (Q8TEW8 196-299, limits assumed, looked up): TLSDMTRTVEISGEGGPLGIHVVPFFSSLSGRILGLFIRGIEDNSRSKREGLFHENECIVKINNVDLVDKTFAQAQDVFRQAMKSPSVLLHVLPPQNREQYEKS

PDZRN3_1, Q9UPQ7 = biological target: T5, PDZRN3_1, Q9UPQ7
T5 sequence (Q9UPQ7 244-349, limits assumed, looked up): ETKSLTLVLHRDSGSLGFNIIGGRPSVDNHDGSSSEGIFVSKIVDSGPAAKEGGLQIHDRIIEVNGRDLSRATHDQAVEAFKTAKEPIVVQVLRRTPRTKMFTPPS

MAGI2_3, Q86UL8 = biological target: MAGI2_3, Q86UL8
MAGI2_3, Q86UL8, sequence (Q86UL8 600-682): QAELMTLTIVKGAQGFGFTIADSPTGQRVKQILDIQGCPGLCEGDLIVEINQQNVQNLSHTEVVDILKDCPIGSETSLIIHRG

FRMPD1, Q5SYB0 = biological target: T6, FRMPD1, Q5SYB0
T6 sequence (Q5SYB0 52-145, limits assumed, looked up): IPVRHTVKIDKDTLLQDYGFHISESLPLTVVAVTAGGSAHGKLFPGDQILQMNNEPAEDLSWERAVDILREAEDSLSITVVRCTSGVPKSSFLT

IL16_4, Q14005 = biological target: IL16_4, Q14005
IL16_4, Q14005, sequence (Q14005 1229-1329): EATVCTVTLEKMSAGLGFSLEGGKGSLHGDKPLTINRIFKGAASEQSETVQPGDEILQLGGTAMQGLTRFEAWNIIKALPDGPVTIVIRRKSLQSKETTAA

FRMPD4, Q14CM0 = biological target: FRMPD4, Q14CM0
FRMPD4, Q14CM0, sequence (Q14CM0 67-160): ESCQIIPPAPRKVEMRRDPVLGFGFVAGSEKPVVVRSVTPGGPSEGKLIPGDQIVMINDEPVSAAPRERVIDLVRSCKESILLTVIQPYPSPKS

CARD11, Q9BXL7 = biological target: T7, CARD11, Q9BXL7
T7 sequence (Q9BXL7 662-765, limits assumed, looked up): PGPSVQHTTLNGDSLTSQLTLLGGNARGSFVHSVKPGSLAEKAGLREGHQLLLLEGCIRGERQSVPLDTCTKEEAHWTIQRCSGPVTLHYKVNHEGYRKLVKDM

APBA3_1, O96018 = biological target: T8, APBA3_1, O96018
T8 sequence (O96018 389-490, limits assumed, looked up): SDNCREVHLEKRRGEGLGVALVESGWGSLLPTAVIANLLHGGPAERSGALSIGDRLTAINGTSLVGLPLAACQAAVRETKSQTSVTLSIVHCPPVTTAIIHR

GRIP1_5, Q9Y3R0 = biological target: T9, GRIP1_5, Q9Y3R0
T9 sequence (Q9Y3R0 568-668, limits assumed, looked up): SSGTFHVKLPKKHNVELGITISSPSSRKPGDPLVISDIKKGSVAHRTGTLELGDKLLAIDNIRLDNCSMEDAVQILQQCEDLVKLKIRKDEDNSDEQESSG

LDB3, O75112 = biological target: LDB3, O75112
LDB3, O75112, sequence (O75112 1-94): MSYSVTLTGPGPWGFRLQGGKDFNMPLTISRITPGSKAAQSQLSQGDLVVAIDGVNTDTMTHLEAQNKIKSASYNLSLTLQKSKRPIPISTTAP

NHERF3_1, Q5T2W1 = biological target: T10, NHERF3_1, Q5T2W1
T10 sequence (Q5T2W1 4-100, limits assumed, looked up): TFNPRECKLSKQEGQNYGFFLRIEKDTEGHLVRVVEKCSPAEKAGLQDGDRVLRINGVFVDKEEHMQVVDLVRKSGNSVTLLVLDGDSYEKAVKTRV

MPDZ_12, O75970 = biological target: T11, MPDZ_12, O75970
T11 sequence (O75970 1857-1958, limits assumed, looked up): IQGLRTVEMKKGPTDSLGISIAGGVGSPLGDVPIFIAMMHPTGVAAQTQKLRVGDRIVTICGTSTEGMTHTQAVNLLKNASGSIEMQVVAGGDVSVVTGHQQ

GRID2IP_1, A4D2P6 = biological target: GRID2IP_1, A4D2P6
GRID2IP_1, A4D2P6, sequence (A4D2P6 1-87): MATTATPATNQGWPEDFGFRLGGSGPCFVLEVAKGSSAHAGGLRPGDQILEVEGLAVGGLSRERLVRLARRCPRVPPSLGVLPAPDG

PARD3_3, Q8TEW0 = biological target: PARD3_3, Q8TEW0
PARD3_3, Q8TEW0, sequence (Q8TEW0 582-685): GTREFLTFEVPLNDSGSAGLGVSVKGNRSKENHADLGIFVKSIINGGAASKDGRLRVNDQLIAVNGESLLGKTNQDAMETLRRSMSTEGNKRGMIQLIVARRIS

MPDZ_5, O75970 = biological target: T12, MPDZ_5, O75970
T12 sequence (O75970 695-796, limits assumed, looked up): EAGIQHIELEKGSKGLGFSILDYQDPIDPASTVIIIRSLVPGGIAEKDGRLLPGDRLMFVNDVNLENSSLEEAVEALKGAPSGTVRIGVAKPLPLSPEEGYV

MAGI2_6, Q86UL8 = biological target: MAGI2_6, Q86UL8
MAGI2_6, Q86UL8, sequence (Q86UL8 1141-1229): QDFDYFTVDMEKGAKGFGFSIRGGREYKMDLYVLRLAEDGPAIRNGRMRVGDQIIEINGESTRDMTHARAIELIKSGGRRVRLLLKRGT

APBA2_1, Q99767 = biological target: T13, APBA2_1, Q99767
T13 sequence (Q99767 563-664, limits assumed, looked up): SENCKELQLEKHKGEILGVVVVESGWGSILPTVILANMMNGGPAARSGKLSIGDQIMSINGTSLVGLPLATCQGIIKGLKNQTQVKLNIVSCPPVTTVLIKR

NOS1, P29475 = biological target: NOS1, P29475
NOS1, P29475, sequence (P29475 9-101): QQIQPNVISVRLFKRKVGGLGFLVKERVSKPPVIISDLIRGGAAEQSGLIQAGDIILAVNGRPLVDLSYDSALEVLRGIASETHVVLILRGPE

Measured: pKd

FHPLGADSQV [SLC2A1, P11166]
3.49: NOS1, P29475
3.53: PDZRN3_1, Q9UPQ7
3.51: DLG4_1, P78352
3.55: GRIP1_7, Q9Y3R0
3.99: MAGI2_6, Q86UL8
below the threshold: all other assays above

VDFPPKESSL [ACVR2A, P27037]
3.24: LIN7A, O14910 | PDLIM1, O00151
3.69: MAGI2_6, Q86UL8
4.76: PDZRN3_1, Q9UPQ7
3.47: GRIP1_7, Q9Y3R0
4.22: NHERF3_1, Q5T2W1
below the threshold: all other assays above

SGSRPSATVV [HPV73-E6, Q82005]
3.83: GRIP1_7, Q9Y3R0
3.76: PARD3_3, Q8TEW0
3.8: NOS1, P29475
3.62: MAGI2_3, Q86UL8
3.48: PDLIM1, O00151
3.53: MPDZ_5, O75970
3.97: DLG4_1, P78352
below the threshold: all other assays above
